According to article PMC4424056:
pKd: −log10 of the molar value.

Legend:
[1] = molecular target: integrin αIIb cytoplasmic tail (αIIb CT, W988-E1008) (human) (UniProt P08514)
[2] = molecular target: integrin αIIb cytoplasmic tail (αIIb CT, W988-E1008) (human) (UniProt P08514); assay: SPR

Sequence of integrin αIIb cytoplasmic tail (αIIb CT, W988-E1008) (human) (P08514 1019-1039): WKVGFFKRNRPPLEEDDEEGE

inhibition by FLNa-Ig21 of the PAC1 binding of WT αIIbβ3 in CHO cells [1]: 40%
pKd [2]: 3.64
Substance: filamin A immunoglobulin repeat 21 (FLNa-Ig21) (from UniProt P21333 2236-2330) (domain or fragment)
